Measured values: patent US20220396632A1 (VERSEAU THERAPEUTICS, published 2022)
Blank lines part the entries; values can stand above or below the binder they belong to. No end group written: not given here. *: point of attachment. Biotin = O=C1N[C@H]2[C@H](CS[C@H]2CCCCC(=O)*)N1

Legend:
[1] = molecular target: T1, 260-280 (N-terminal acetyl; C-terminal Lys-biotin); assay: ELISA, streptavidin-immobilized biotin peptide [cont.]
T1 construct: also called Biotin PSGL-1(260-280) peptide
T1 peptide: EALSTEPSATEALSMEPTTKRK
Protocol: (§1) A typical ELISA experiment involved binding of a single concentration or serially diluted mAb in assay buffer (3% BSA in PBS containing 0.05% Tween®20, pH 7.4) onto BSA blocked high binding microtiter plate half-wells (Corning Cat. #3690), which contained PSGL-1 protein or streptavidin-immobilized biotin peptide. After incubation for 45 min. at 37° C., the plate was washed 3 times with wash buffer (PBS containing 0.05% Tween®20, pH 7.4), and an appropriate HRP-conjugated secondary antibody added (25 ul/well) (HRP goat anti-mouse or anti-human IgG). After 45 min. incubation at 37° C., the plate was washed and antibody bound to plate-immobilized target was determined at A450 nm using HRP substrate (3,3′5,5′-tetramethylbenzidine (TMB)). For each antibody, duplicate values were averaged and assay background subtracted.

[2] = molecular target: T2, PSGL-1(305-320); assay: as above
T2 construct: also called Biotin PSGL-1(305-320) peptide
T2 peptide: Ac-VNYPVGAPDHISVKQSK(Biotin)
Protocol: as §1

[3] = molecular target: T3, 63-80 (N-terminal acetyl; C-terminal Lys-biotin); assay: as above
T3 construct: also called Biotin PSGL-1(63-80) peptide
T3 peptide: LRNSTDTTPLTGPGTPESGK
Protocol: as §1

[4] = molecular target: T4, 185-210 (N-terminal acetyl; C-terminal Lys-biotin); assay: as above
T4 construct: also called Biotin PSGL-1(185-210) peptide
T4 peptide: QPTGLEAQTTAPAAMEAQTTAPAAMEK
Protocol: as §1

[5] = molecular target: T5, PSGL-1(120-140) (N-terminal acetyl; C-terminal Lys-biotin); assay: as above
T5 construct: also called Biotin PSGL-1(120-140) peptide
T5 peptide: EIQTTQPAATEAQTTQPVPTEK
Protocol: as §1

[6] = molecular target: T6, PSGL-1(90-110) (N-terminal acetyl; C-terminal Lys-biotin); assay: as above
T6 construct: also called Biotin PSGL-1(90-110) peptide
T6 peptide: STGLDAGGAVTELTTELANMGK
Protocol: as §1

[7] = molecular target: T7, 205-230 (N-terminal acetyl; C-terminal Lys-biotin); assay: as above
T7 peptide: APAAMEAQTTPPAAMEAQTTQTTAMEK
Protocol: as §1

[8] = molecular target: T8, 131-150 (N-terminal acetyl; C-terminal Lys-biotin); assay: as above
T8 construct: also called Biotin PSGL-1(131-150) peptide
T8 peptide: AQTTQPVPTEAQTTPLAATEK
Protocol: as §1

[9] = molecular target: T9, Biotin PSGL-1(105-125) peptide (human, N-terminal acetyl; C-terminal Lys-biotin); assay: ELISA, plate-bound peptide or protein
T9 peptide: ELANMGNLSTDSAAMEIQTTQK
Protocol: as §1

[10] = molecular target: T10, Biotin PSGL-1(42-62) peptide, unmodified (human, C-terminal Lys-biotin); assay: ELISA, streptavidin-immobilized biotin peptide
T10 construct: Residues 42-62 followed by GGGK-biotin; also called WT; wild-type
T10 peptide: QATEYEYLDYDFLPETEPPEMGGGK
Protocol: as §1

[11] = molecular target: T11, Biotin PSGL-1(290-310) peptide (human, N-terminal acetyl; C-terminal Lys-biotin); assay: ELISA, streptavidin-immobilized biotin peptide
T11 peptide: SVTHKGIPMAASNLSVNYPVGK
Protocol: as §1

[12] = molecular target: T12, 42-80 (C-terminal Lys-biotin); assay: ELISA, streptavidin-immobilized biotin peptide
T12 construct: also called Biotin PSGL-1(42-80) peptide
T12 peptide: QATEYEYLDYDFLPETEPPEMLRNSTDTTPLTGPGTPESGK
Protocol: as §1

[13] = molecular target: T13, PSGL-1 endogenously expressed on HL-60 cells (UniProt Q14242 42-412); assay: flow cytometry on HL-60 cells; against parent 19L04
T13 construct: whole, on cells
T13 sequence (looked up): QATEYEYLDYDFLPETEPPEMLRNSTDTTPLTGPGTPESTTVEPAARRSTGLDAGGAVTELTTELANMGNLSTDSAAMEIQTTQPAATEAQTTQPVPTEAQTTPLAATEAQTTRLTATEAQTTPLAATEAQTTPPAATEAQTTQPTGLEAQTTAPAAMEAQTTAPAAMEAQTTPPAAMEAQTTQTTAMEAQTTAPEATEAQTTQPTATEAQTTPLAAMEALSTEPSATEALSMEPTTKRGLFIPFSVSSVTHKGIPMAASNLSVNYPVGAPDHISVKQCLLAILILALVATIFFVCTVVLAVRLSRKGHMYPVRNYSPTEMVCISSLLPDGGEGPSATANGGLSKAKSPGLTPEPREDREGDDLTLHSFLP
Protocol: A typical flow cytometry assay was performed by resuspending HL-60 cells in FACS buffer (5% FBS and 0.05% Sodium Azide in PBS, pH 7.2) on ice, pelleting cells by centrifugation at 500×g for 3 min, washing cells with FACS buffer, and then blocking Fc receptors on the cells with Fc block (human TruStain FcX™, BioLegend Cat. #422302) on ice for 10 min. After washing, 50,000 cells/50 ul in FACS buffer was added to each well of a 96-well round bottomed plate (Costar, Cat. #3797), and 50 ul of serially diluted (0.06 nM-1.0 uM) test or isotype control antibody was added into duplicate wells. The plate was covered and incubated on ice for 1 h. After washing, Phycoerythrin (PE) conjugated anti-human IgG secondary antibody (Abcam; Cat. #ab99825) was added to each well and the plate incubated in the dark on ice for 30 min. After washing, the cells were fixed (1% paraformaldhyde).

binding result [1]: no binding (tested: 10 nM)
binding result [2]: no binding (tested: 10 nM)
binding result [3]: no binding (tested: 10 nM)
binding result [4]: no binding (tested: 10 nM)
binding result [5]: no binding (tested: Log M -7 (100 nM))
binding result [6]: no binding (tested: 10 nM)
binding result [7]: no binding (tested: 10 nM)
binding result [8]: no binding (tested: 10 nM)
B1: 18K07 (antibody, V domains shown)
VH: QIQLVQSGPELKKPGETVKISCEASGYTFTTYGMNWVKQAPGKGLKWMGWINTYSGVPTYADDFQGRFAFSVETSATTAYLQINNLKNEDAATYFCARSDDTYYGFAYWGQGTLVTVSA
VL: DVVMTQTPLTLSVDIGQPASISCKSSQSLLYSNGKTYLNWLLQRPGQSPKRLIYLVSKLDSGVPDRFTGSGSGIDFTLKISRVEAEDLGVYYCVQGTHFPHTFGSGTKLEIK
notes: From mouse immunisation; only variable domains given

EC50 [9]: 26.7 nM
binding result [10]: no binding (tested: 10 nM)
binding result [11]: no binding (tested: 10 nM)
binding result [12]: no binding (tested: 10 nM)
B2: 16E17 (antibody, V domains shown)
VH: QIQLVQSGPELKKPGETVKISCKASGYAFTTYGMSWVKQAPGKGLKWMGWINTYSGVPKYADDFKGRFAFSLETSASTAYLHINNLKNEDTATYFCGRHYYGSSYFDYWGQGTTLTVSS
VL: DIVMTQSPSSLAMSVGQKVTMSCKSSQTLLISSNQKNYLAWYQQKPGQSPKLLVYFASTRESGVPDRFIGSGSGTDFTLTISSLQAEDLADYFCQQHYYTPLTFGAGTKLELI
notes: as for B1

HL-60 EC50 (normalized) [13]: 1 fold
B3: 19L04 (antibody, IgG4, V domains shown)
VH: QIQLVQSGPELKKPGETVKISCKASGYTFTTYGMSWVKQAPGKGLKWMGWINTYSGVPTYADDFKGRFAFSLETSASTAYLQINNLKIEDTATYFCARHYYGSHYFDYWGQGTTLTVSS
VL: DIMMTQSPSSLAMSVGQKVTLRCKSSQSLLNSSNQKNYLAWYQQKPGQSPKLLVYFASTRESGVPVRFIGSGSGTDFTLTISSMQAEDLADYFCQQHYFSPLTFGAGTKLELK
notes: as for B1
